The source of these data is patent US20210347899A1 (BRIGHAM AND WOMEN S HOSPITAL, published 2021).

Test [1] deals with T1, full length human KLRG1 (human, UniProt Q96E93 1-195).
T1 sequence (looked up): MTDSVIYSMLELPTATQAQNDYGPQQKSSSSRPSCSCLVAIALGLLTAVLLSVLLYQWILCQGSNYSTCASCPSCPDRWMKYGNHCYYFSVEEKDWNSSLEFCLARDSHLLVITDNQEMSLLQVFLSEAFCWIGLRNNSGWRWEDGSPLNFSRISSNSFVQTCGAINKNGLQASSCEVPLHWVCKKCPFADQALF
In words: cell-based or functional assay.

In test [2] the target is T1, full length human KLRG1. In words: cell-based or functional assay. This is another data set of the same source.
For test [3], the target named is T1, full length human KLRG1. In words: FACS on CHO-human-KLRG1 cells. How it is done:
(§1) Binding of anti-KLRG1 monoclonal antibodies to cell expressed human and cynomolgus-KLRG1 was carried out by FACS. Chinese hamster ovary (CHO) cells were stably transfected to express full length human KLRG1 (CHO-human-KLRG1) and cynomolgus KLRG1 (CHO-cynomolgus-KLRG1).

Test [4] has as its target T2, full length cynomolgus KLRG1 (cynomolgus, UniProt A0A2K5WAP9 1-186).
T2 construct: whole, on cells; also called Cyno KLRG1; CHO-cynomolgus-KLRG1
T2 sequence: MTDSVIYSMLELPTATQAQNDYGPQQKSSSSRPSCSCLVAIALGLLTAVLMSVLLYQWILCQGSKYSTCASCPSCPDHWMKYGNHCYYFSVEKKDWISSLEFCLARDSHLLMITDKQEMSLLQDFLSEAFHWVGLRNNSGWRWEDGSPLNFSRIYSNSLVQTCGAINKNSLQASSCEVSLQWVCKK
The experiment in a line: FACS on CHO-cynomolgus-KLRG1 cells. Here is the method: as §1

For another test, the target named is T3, cynomolgus KLRG1 ECD (cynomolgus, biotinylated in the OCTET assay, site not stated).
T3 construct: Recombinant proteins were made as FC fusion or as HIS tagged versions; also called cynonolgus KLRG1 ECD
T3 chain: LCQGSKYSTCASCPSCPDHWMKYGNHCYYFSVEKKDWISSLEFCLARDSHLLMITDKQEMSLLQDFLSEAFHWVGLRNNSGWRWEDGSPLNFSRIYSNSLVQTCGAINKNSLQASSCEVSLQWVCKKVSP
The experiment in a line: hybridoma screen for binding to KLRG1 ECD.

The target in test [5] is T1, full length human KLRG1. In words: FACS competition, loss of HIS tagged E-cadherin binding to CHO-hKLRG1 cells. How it is done: (§2) The ability of monoclonal antibodies to inhibit E-cadherin/KLRG1 binding was measured by FACS. Binding of E-cadherin to CHO-hKLRG1 cells was first determined by incubating the KLRG1 expressing cells with varying concentration of HIS tagged recombinant E-cadherin and detected by FACS with anti-HIS detection antibody.

Test [6] has as its target T1, full length human KLRG1. The experiment in a line: E-cadherin binding inhibition study, FACS on CHO-hKLRG1 cells; labels of Table 12 stand one row too low, value agrees with ABC_G1N05 in Table 8. How it is done:
as §2
(§3) IC50 values for each antibody were derived from E-cadherin binding inhibition studies and plotted against IFNγ production levels measured in CD8+ T cells IFNγ release assays.

Test [7] has as its target T1, full length human KLRG1. In words: E-cadherin binding inhibition study, FACS on CHO-hKLRG1 cells; labels of Table 12 stand one row too low, value agrees with ABC_G1N08 in Table 8. How it is done:
as §2, §3

For test [8], the target named is T1, full length human KLRG1. In words: E-cadherin binding inhibition study, FACS on CHO-hKLRG1 cells; labels of Table 12 stand one row too low, value agrees with ABC_G1N02 (5.03) in Table 8. How it is done: as §2, §3

B1: ABC_G1N05 (antibody, V domains shown)
VH: EVLLMESGGDLVKPGGSLKLSCAASGFTFSSYDMSWVRQTPDKRLEWVATISSSGRYTFYPDNVKGRFTISRDNAKNTLYLQVSNLKSEDTAMYYCSRTGVTTVVFTDYFDYWGQGTTLTVSS
VL: DIQMTQSPSSLSASLGERVSLTCRASQDIGNSLNWLQQGPDGTIKRLIYATSSLDSGVPKRFSGSRSGSTYSLTISSLESEDFVAYYCLQYLSSPPTFGGGTKLEIK
notes: Mouse hybridoma monoclonal antibody
The EC50 is the concentration giving half of the maximal effect. A high value points to a less potent agent. What is called IC50 is the concentration at which inhibition is half-maximal. Take B1: the “IFNγ released (pg/ml), Sample 1” value with full length human KLRG1 [1] amounted to 1010 pg/mL. The “IFNγ released (pg/ml), Sample 2” value in the test with full length human KLRG1 [1] worked out at 1080 pg/mL. The “IFNγ” value with full length human KLRG1 [2] is 1050 pg/mL. Further, the EC50 in the test with full length human KLRG1 [3] stood at 39.8 nM; in [4] it was 0.5 nM. The binding result with cynomolgus KLRG1 ECD is given as “binds”. Further, the IC50 with full length human KLRG1 [5] and with full length human KLRG1 [6] was 23 nM in each case.

B2: ABC_G1N08 (antibody, V domains shown)
VH: QVQLQQSGAELAKPGASVKLSCKASGYTFTSYFLHWVKQRPGQGLEWIGYMNPSSGYTKCNQKFKDKATLTADKSSSTAYMQVSSLTYEDSAVYYCARDRIGYWDFDVWGTGTTVTVSS
VL: DVVMTQSQKFMSTTVGDRVSITCKASQNVGTAVAWYQQKPGQSPKLLIYSASNRYTGVPDRFTGSGSGTDFTLTITNMQSEDLADYFCQQYSSYLTFGAGTKLDLK
notes: as for B1
For B2, the “IFNγ released (pg/ml), Sample 1” value with full length human KLRG1 [1] turned out to be 1010 pg/mL. Besides, the “IFNγ released (pg/ml), Sample 2” value in the test with full length human KLRG1 [1] was 1060 pg/mL. In the test with full length human KLRG1 [2], the “IFNγ” value was found to be 1040 pg/mL. The EC50 with full length human KLRG1 [3] was determined as 4.8 nM; in test [4], 1.3 nM. In addition, the binding result with cynomolgus KLRG1 ECD was “binds”. The 50% inhibitory concentration (IC50) in the test with full length human KLRG1 [5] and with full length human KLRG1 [7] was 10 nM each time.

B3: ABC_G1N02 (antibody, V domains shown)
VH: QVTLKESGPGILQPSQTLSLTCSVSGFSLSTFGMGVGWIRQPSGKGLEWLAHIWWDDDKWYELALKSRLTISKDSSKNQVFLKIANVDTADTATYFCARVIYYGSRSAYYSMDYWGPGTSVTVSS
VL: DVLMTQTPLSLPVSLGAQASISCKSSQSIVHSNGHTYLEWYLQKPGQSPKILIYKVSNRFSGVPDRFSGSGSGTDFTLKISRVEAEDLGVYYCFQGSHVPVTFGAGTKLELK
notes: as for B1
For the molecule B3, the “IFNγ released (pg/ml), Sample 1” value with full length human KLRG1 [1] was found to be 1440 pg/mL. In addition, in the test with full length human KLRG1 [1], the “IFNγ released (pg/ml), Sample 2” value was determined as 1290 pg/mL. Besides, in the test with full length human KLRG1 [2], the “IFNγ” value was 1370 pg/mL. Also, the half-maximal effective concentration (EC50) with full length human KLRG1 [3] is 1.01 nM; in [4], 2.02 nM. In the test with cynomolgus KLRG1 ECD, the binding result is “binds”. The half-inhibitory concentration (IC50) in the test with full length human KLRG1 [5] turned out to be 5.03 nM; with full length human KLRG1 [8], 5 nM.
